Measurements from patent publication US20190367619A1 (ARGENX, published 2019).
Residue numbers refer to the chain shown, from its start.

Key:
[1] = molecular target: T1, human galectin-10 as coated in ELISA (soluble galectin-10; tag not given) (human, UniProt Q05315 1-142, limits assumed); test: ELISA, scFv periplasmic extract on coated soluble galectin-10, anti-Myc-HRP
T1 construct: also called coated galectin-10; Gal10
T1 sequence: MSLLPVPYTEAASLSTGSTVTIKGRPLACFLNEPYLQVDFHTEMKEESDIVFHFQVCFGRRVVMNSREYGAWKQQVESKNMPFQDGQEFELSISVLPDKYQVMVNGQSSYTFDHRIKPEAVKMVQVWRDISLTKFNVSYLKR
Procedure: In order to test the binding capacity of the scFvs to galectin-10, an ELISA binding assay was established. Briefly, a Maxisorp plate was coated with soluble galectin-10 (1 μg/mL), then blocked with casein, before being incubated with the periplasmic extract (dilution 1/5 in PBS) containing the scFv-Myc. Detection of the binder was carried out with an anti-Myc-HRP antibody. Absorbance was measured at 450 nm (reference at 620 nm) with Tecan instrument. A significant number of galectin-10 scFv binders were isolated after the second round of selection (45-87% of binders).

[2] = molecular target: T2, cynomolgus galectin-10-His, YRT isoform (cynomolgus); test: ELISA, Gal10-His coated at 1 ug/mL, VHH titrated, anti-Myc-HRP
T2 construct: not shown: His tag
T2 chain: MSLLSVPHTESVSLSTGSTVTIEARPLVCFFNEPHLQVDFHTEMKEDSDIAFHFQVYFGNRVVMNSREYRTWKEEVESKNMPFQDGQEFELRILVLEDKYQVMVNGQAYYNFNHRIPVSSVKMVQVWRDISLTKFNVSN
Procedure: (§1) The binding capacity of the 15 VHH clones was analysed by ELISA. Briefly, a Maxisorp plate was coated overnight with human or cynomolgus WGS or YRT isoforms galectin-10-His at 1 μg/mL and blocked with PBS 1% casein, before being incubated with a serial dilution of the VHH (from 4 μM, dilution 1/3, 12 points of dilutions). […] Absorbance was measured at 450 nm (reference at 620 nm) with Tecan instrument. Finally, the raw data (OD values) were plotted on GraphPad Prism 7.01. […] As a positive control, clone 1D06 from the previous human specific panel was included.

human galectin-10-His = molecular target: T3, human galectin-10-His (human); test: as above
T3 construct: Whether the last M of the tag is the start Met of galectin-10 is not clear; also called human Gal10-HIS; humanGal10-His
T3 chain: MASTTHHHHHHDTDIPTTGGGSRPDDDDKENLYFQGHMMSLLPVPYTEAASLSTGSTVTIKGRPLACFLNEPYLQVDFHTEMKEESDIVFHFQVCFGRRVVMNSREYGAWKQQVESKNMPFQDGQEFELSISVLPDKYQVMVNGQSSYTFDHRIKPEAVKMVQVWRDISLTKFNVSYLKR
Procedure: as §1

[3] = molecular target: T4, cynomolgus galectin-10-His, WGS isoform (cynomolgus); test: as above
T4 construct: not shown: His tag
T4 chain: T2 chain with E23K, A24G, F31L, Y69F, R70K, T71I, R92S
Procedure: as §1

B1: scFv 4B10 (periplasmic extract, Myc-tagged) (scFv, not shown: small tags and cut ends)
scFv: QLQLVESGGGLVQPGGSLRLSCAASGFTFSNYWMYWVRQAPGKGLEWVSAIDVGGGTTDYAGSVKGRFTISRDNTKSTVYLQMNTLKPEDTALYYCLRGGSYYGGMDYWGKGTLVTVSSGGGGSGGGGSGGGGSQSALTQPSAVSVSLGQTARITCQGAKLGRYYGIWYQQKPGQAPVQVIYGDSNRPSGIPERFSGSSSGGTATLTISGAQAEDEADYYCQSYESSTSPVFGGGTHLTVL
PERI-ELISA binding (OD values) [1]: 2.44 OD

B2: VHH clone 14E02 (VHH)
VHH: QVQLVESGGGLAQAGGSLRLSCVASGRAAGTYSMAWFRQAPGKEREFVAAITWAGGYTYGADSEKGRFTISRDNAKNTVYLQMNSLKPEDTAVYSCAGGRLFTSQSSAYQYWGQGTQVTVSS
notes: Purified VHH-Myc-His from E. coli; not shown: Myc and His tags of the phagemid vector
Bmax (OD values) [2]: 2.1 OD
Bmax (OD values) (human galectin-10-His): 0.7 OD
Bmax (OD values) [3]: 1.8 OD

B3: VHH clone 1D06 (VHH, not shown: large carriers)
VHH: QLQLVESGGGLVQPGGSLRLSCAASENSVSTYAMGWFRQAPGKEREFVAAITRAGGNTYNADSVKGRFTISRDNAENTIYLQMNSLKPEDTAVYSCAAGPRYSTISTMFPYWGQGTQVTVSS
notes: Positive control from the previous human-specific panel; also called 1D6
Bmax (OD values) [2]: 0 OD
binding result [2]: no binding (tested: up to 4 uM VHH)
Bmax (OD values) (human galectin-10-His): 1.2 OD
EC50 (human galectin-10-His): 90.7 nM
Bmax (OD values) [3]: 0 OD
binding result [3]: no binding (tested: up to 4 uM VHH)

B4: scFv 4H10 (periplasmic extract, Myc-tagged) (scFv, not shown: small tags and cut ends)
scFv: QVQLVESGGGLVQPGGSLRLSCAASGFTFDDYAMSWVRQAPGKGLEWVSAISWNGGSTYYAESMKGRFTISRDNAKNTLYLQMNSLKSEDAAVYYCAKDLSASGSYYHTFGSWGQGTQVTVSSGGGGSGGGGSGGGGSQAGLTQPPSVAGTLGKTVTISCAGTSSDVGYGDYVSWYQHIPGTAPKLLIYKVKTRASGIPDRFSGSKSGNTASLTISGLQSGDESDYYCASYKNGGTAVFGGGTHLTVL
PERI-ELISA binding (OD values) [1]: 3.48 OD

B5: VHH clone 13E07 (VHH)
VHH: ELQVVESGGGLVQAGDSLRLSCAVSGRTFSSYHMMWFRQAPGKEREFVAAIAWRGGTYCANSVKGRCTISRDNAKDTVYLQMNSLKPEDTAVYFCAASLRYVFDPSAMDYWGKGTLVTVSS
notes: as for B2
Bmax (OD values) [2]: 2.4 OD
Bmax (OD values) (human galectin-10-His): 1.1 OD
Bmax (OD values) [3]: 2.3 OD
EC50 [3]: 371 nM

B6: VHH clone 13D12 (VHH)
VHH: B5 VHH with E1Q, V4L, V24A, I51L, K75Q, L99R, G112A
notes: as for B2
Bmax (OD values) [2]: 2.4 OD
EC50 [2]: 119 nM
Bmax (OD values) (human galectin-10-His): 0.8 OD
Bmax (OD values) [3]: 1.3 OD

B7: VHH clone 14E10 (VHH)
VHH: ELQLVESGGGLVQAGGSLRLSCAASEGTFRPYAMGWFRQAPRKEREFVAVISLSGAYTYNVNAVKGRFTISRDNAKNTVYLQMNSLTPEDTAIYYCGASRTYYRTDESTYEYWGQGTQVTVSS
notes: as for B2
Bmax (OD values) [2]: 2.7 OD
EC50 [2]: 15.8 nM
Bmax (OD values) (human galectin-10-His): 0.5 OD
Bmax (OD values) [3]: 1.4 OD

B8: VHH clone 13C10 (VHH)
VHH: QLQLVESGGGLVQAGGSLKLSCAASGRTFNPYTMGWFRQAPGKEREFVAVVSSGGGTYYANSVKGRFTISRDNAKATVYLQMNSLKPEDTAVYYCAAGSIFRWSPMSYDYWGQGTQVTVSS
notes: as for B2
Bmax (OD values) [2]: 2.7 OD
EC50 [2]: 186 nM
Bmax (OD values) (human galectin-10-His): 1 OD
Bmax (OD values) [3]: 2.3 OD

B9: scFv 3A03 (periplasmic extract, Myc-tagged) (scFv, not shown: small tags and cut ends)
scFv: QVQLVESGGGLVQPGGSLRLSCATSGFTFSVYAMSWVRQAPGKGLEWVADINTSGDSTTYADSVKGRFTISRDNAKNTLYLQMNSLKPEDTAVYYCANRYTQERGQGTQVTVSSGGGGSGGGGSGGGGSDVVLTQTPGSLSVVPGEAASISCKPGRTLVHTDGRTYLYWLQQKPGQRPQLLIYQVSNRGSGVPDRFTGSGSGTDFTLKISGVKAEDAGVYYCAQATYYPLTFGSGTRLEIK
PERI-ELISA binding (OD values) [1]: 3.4 OD

B10: scFv 4G05 (periplasmic extract, Myc-tagged) (scFv, not shown: small tags and cut ends)
scFv: QLQVVESGGGLVQTGGSLTLSCTTSGFTFSRYWMIWVRQAPGKGLEWVSSIYNDGGNTYYADSVKGRFTISRDNSENTLYLQMNSLKSEDTAVYYCAKLKAAYYGMDYWGKGTLVTVSSGGGGSGGGGSGGGGSSSALTQPSAVSVSLGQTARITCQGANLGRYYGIWYQQKPGQAPVQVIYGDSNRPSGIPERFSGSSSGGTATLTISGAQAEDEADYYCQSYESSTSPVFGGGTHLTVL
PERI-ELISA binding (OD values) [1]: 3.8 OD

B11: VHH clone 13H07 (VHH)
VHH: QLQLVESGGGLVQAGGSLRLSCVASGRTFSTYAMDWFRQAPGKEREFVAAISWHSAIYYADAVKGRFTISRDNGKNTMYLQMNNLKPEDTAVYFCAAALRYRFNPSAMEYWGKGTLVTVSS
notes: as for B2
Bmax (OD values) [2]: 3.1 OD
EC50 [2]: 1.3 nM
Bmax (OD values) (human galectin-10-His): 1.5 OD
EC50 (human galectin-10-His): 180 nM
Bmax (OD values) [3]: 2.7 OD
EC50 [3]: 15.6 nM

B12: VHH clone 13C07 (VHH)
VHH: QLQVVESGGGLVQAGGSLRLSCAASSSAYSMAWFRQAPGKEREFVAAITWSGGSHHDDSVKGRFTISRDGAKNTVYLQMNSLKPEDTAVYYCAVGTLYSFSYRDYDYWGQGTQVTVSS
notes: as for B2
Bmax (OD values) [2]: 2.8 OD
EC50 [2]: 33.2 nM
Bmax (OD values) (human galectin-10-His): 1.3 OD
EC50 (human galectin-10-His): 107 nM
Bmax (OD values) [3]: 2.9 OD
EC50 [3]: 7.1 nM

B13: VHH clone 13G12 (VHH)
VHH: B12 VHH with A32G, A47V, T49S, H56Y, S101R
notes: as for B2
Bmax (OD values) [2]: 3.1 OD
EC50 [2]: 3.1 nM
Bmax (OD values) (human galectin-10-His): 1.6 OD
EC50 (human galectin-10-His): 141 nM
Bmax (OD values) [3]: 2.9 OD
EC50 [3]: 11.8 nM

B14: VHH clone 13A05 (VHH)
VHH: QVQLVESGGGLVQAGGSLRLSCAASSSSYSMSWFRQAPGKEREFVAIISWSGGTYYDDSVKGRFTVSRDNAKNTVYLQMNSLKPEDTAVYYCAAGTQFSFSYREYDYWGQGTQVTVSS
notes: as for B2
Bmax (OD values) [2]: 2.9 OD
EC50 [2]: 66.3 nM
Bmax (OD values) (human galectin-10-His): 1.8 OD
EC50 (human galectin-10-His): 69.7 nM
Bmax (OD values) [3]: 2.7 OD
EC50 [3]: 77.8 nM

B15: VHH clone 13C06 (VHH)
VHH: B14 VHH with V2L, S32G, I47T, T54F, Q97R, D106H
notes: as for B2
Bmax (OD values) [2]: 2.9 OD
EC50 [2]: 16.2 nM
Bmax (OD values) (human galectin-10-His): 2.8 OD
EC50 (human galectin-10-His): 27.5 nM
Bmax (OD values) [3]: 2.9 OD
EC50 [3]: 10.3 nM

B16: VHH clone 14F10 (VHH)
VHH: EVQLVESGGGLVQAGDSLRLSCAASGRTFSGYAVGWFRQAPGKEREFVTIISWNGGTHYADSVKGRFAISRDNAKNTVYLQMNNLKPEDTAVYYCAVSPKYYFSPETYNYWGQGTQVTVSS
notes: as for B2
Bmax (OD values) [2]: 3 OD
EC50 [2]: 3 nM
Bmax (OD values) (human galectin-10-His): 0.5 OD
Bmax (OD values) [3]: 2.6 OD
EC50 [3]: 60.4 nM
